Source: US20150307628

T1: dummy-Fc heavy chain constant region with CH3B of mutant EW-RVT (S-S) (Q347R/S354C/D399V/F405T)
T1 chain: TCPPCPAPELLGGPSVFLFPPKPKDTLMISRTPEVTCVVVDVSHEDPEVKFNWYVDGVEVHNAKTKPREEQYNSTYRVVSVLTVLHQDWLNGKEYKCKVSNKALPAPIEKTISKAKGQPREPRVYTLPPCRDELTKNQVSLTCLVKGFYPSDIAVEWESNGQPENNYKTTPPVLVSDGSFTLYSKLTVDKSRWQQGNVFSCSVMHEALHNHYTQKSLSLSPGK

T2: dummy-Fc heavy chain constant region with CH3B of mutant SW-WVT (S-S) (Y349C/E357W/D399V/F405T)
T2 chain: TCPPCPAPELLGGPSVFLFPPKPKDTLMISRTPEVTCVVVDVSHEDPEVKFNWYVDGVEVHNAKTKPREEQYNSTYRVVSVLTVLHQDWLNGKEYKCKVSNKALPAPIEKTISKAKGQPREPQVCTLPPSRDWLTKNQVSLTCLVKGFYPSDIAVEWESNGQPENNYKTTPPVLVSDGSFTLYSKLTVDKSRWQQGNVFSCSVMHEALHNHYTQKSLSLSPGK

T3: dummy-Fc heavy chain constant region with CH3B of mutant EEW-RVT (Q347R/D399V/F405T)
T3 chain: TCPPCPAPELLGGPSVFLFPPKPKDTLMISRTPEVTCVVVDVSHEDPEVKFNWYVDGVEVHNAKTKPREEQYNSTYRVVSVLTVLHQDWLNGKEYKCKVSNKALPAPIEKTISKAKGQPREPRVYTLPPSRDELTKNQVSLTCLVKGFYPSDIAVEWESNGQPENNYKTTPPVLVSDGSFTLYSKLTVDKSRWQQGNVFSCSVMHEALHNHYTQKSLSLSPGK


How the values were obtained:
[1] = co-expression in HEK293F, protein A purification, non-reducing SDS-PAGE, band density (ImageJ); mean ± S.E.M.
[2] = target: T1, dummy-Fc heavy chain constant region …; assay: as above
[3] = target: T2, dummy-Fc heavy chain constant region …; assay: as above
[4] = target: T3, dummy-Fc heavy chain constant region …; assay: repeated expression and purification, SDS-PAGE band density (ImageJ)
[5] = target: T3, dummy-Fc heavy chain constant region …; assay: co-expression in HEK293F, protein A purification, non-reducing SDS-PAGE, band density (ImageJ); mean ± S.E.M.

Protein	Heterodimer yields, BB Homodimer (CH3B:CH3B) (Fc)2 [1] [%]	further results
hAY4a scFv-Fc heavy chain with CH3A of mutant EW-RVT (S-S) (Y349C/K360E/K409W) (protein) TCPPCPAPELLGGPSVFLFPPKPKDTLMISRTPEVTCVVVDVSHEDPEVKFNWYVDGVEVHNAKTKPREEQYNSTYRVVSVLTVLHQDWLNGKEYKCKVSNKALPAPIEKTISKAKGQPREPQVCTLPPSRDELTENQVSLTCLVKGFYPSDIAVEWESNGQPENNYKTTPPVLDSDGSFFLYSWLTVDKSRWQQGNVFSCSVMHEALHNHYTQKSLSLSPGK		Heterodimer yields, AA Homodimer (CH3A:CH3A) (scFv-Fc)2 [1]: 0.6%; Heterodimer yields, AB Heterodimer (CH3A:CH3B) (scFv-Fc)(Fc) [2]: 94.2%
dummy-Fc heavy chain constant region with CH3B of mutant EW-RVT (Q347R/D399V/F405T) (protein) TCPPCPAPELLGGPSVFLFPPKPKDTLMISRTPEVTCVVVDVSHEDPEVKFNWYVDGVEVHNAKTKPREEQYNSTYRVVSVLTVLHQDWLNGKEYKCKVSNKALPAPIEKTISKAKGQPREPRVYTLPPSRDELTKNQVSLTCLVKGFYPSDIAVEWESNGQPENNYKTTPPVLVSDGSFTLYSKLTVDKSRWQQGNVFSCSVMHEALHNHYTQKSLSLSPGK	1.6	
dummy-Fc heavy chain constant region with CH3B of mutant EEW-RVT (Q347R/D399V/F405T) (protein) TCPPCPAPELLGGPSVFLFPPKPKDTLMISRTPEVTCVVVDVSHEDPEVKFNWYVDGVEVHNAKTKPREEQYNSTYRVVSVLTVLHQDWLNGKEYKCKVSNKALPAPIEKTISKAKGQPREPRVYTLPPSRDELTKNQVSLTCLVKGFYPSDIAVEWESNGQPENNYKTTPPVLVSDGSFTLYSKLTVDKSRWQQGNVFSCSVMHEALHNHYTQKSLSLSPGK	6.3	
hAY4a scFv-Fc heavy chain with CH3A of mutant SW-WVT (S-S) (Y349S/S354C/K409W) (protein) TCPPCPAPELLGGPSVFLFPPKPKDTLMISRTPEVTCVVVDVSHEDPEVKFNWYVDGVEVHNAKTKPREEQYNSTYRVVSVLTVLHQDWLNGKEYKCKVSNKALPAPIEKTISKAKGQPREPQVSTLPPCRDELTKNQVSLTCLVKGFYPSDIAVEWESNGQPENNYKTTPPVLDSDGSFFLYSWLTVDKSRWQQGNVFSCSVMHEALHNHYTQKSLSLSPGK		Heterodimer yields, AB Heterodimer (CH3A:CH3B) (scFv-Fc)(Fc) [3]: 98.6%
dummy-Fc heavy chain constant region with CH3B of mutant EW-RVT (S-S) (Q347R/S354C/D399V/F405T) (protein) TCPPCPAPELLGGPSVFLFPPKPKDTLMISRTPEVTCVVVDVSHEDPEVKFNWYVDGVEVHNAKTKPREEQYNSTYRVVSVLTVLHQDWLNGKEYKCKVSNKALPAPIEKTISKAKGQPREPRVYTLPPCRDELTKNQVSLTCLVKGFYPSDIAVEWESNGQPENNYKTTPPVLVSDGSFTLYSKLTVDKSRWQQGNVFSCSVMHEALHNHYTQKSLSLSPGK	2.2	
dummy-Fc heavy chain constant region with CH3B of mutant SW-WVT (S-S) (Y349C/E357W/D399V/F405T) (protein) TCPPCPAPELLGGPSVFLFPPKPKDTLMISRTPEVTCVVVDVSHEDPEVKFNWYVDGVEVHNAKTKPREEQYNSTYRVVSVLTVLHQDWLNGKEYKCKVSNKALPAPIEKTISKAKGQPREPQVCTLPPSRDWLTKNQVSLTCLVKGFYPSDIAVEWESNGQPENNYKTTPPVLVSDGSFTLYSKLTVDKSRWQQGNVFSCSVMHEALHNHYTQKSLSLSPGK	0.8	
hAY4a scFv-Fc heavy chain with CH3A of mutant EEW-RVT (Q347E/K360E/K409W) (protein) TCPPCPAPELLGGPSVFLFPPKPKDTLMISRTPEVTCVVVDVSHEDPEVKFNWYVDGVEVHNAKTKPREEQYNSTYRVVSVLTVLHQDWLNGKEYKCKVSNKALPAPIEKTISKAKGQPREPEVYTLPPSRDELTENQVSLTCLVKGFYPSDIAVEWESNGQPENNYKTTPPVLDSDGSFFLYSWLTVDKSRWQQGNVFSCSVMHEALHNHYTQKSLSLSPGK		yield of formation of the heterodimer [4]: about 90 to 95%; Heterodimer yields, AB Heterodimer (CH3A:CH3B) (scFv-Fc)(Fc) [5]: 90.9%
dummy-Fc heavy chain constant region with CH3B of mutant SW-WVT (E357W/D399V/F405T) (protein) TCPPCPAPELLGGPSVFLFPPKPKDTLMISRTPEVTCVVVDVSHEDPEVKFNWYVDGVEVHNAKTKPREEQYNSTYRVVSVLTVLHQDWLNGKEYKCKVSNKALPAPIEKTISKAKGQPREPQVYTLPPSRDWLTKNQVSLTCLVKGFYPSDIAVEWESNGQPENNYKTTPPVLVSDGSFTLYSKLTVDKSRWQQGNVFSCSVMHEALHNHYTQKSLSLSPGK	1.7	
